Experiment in all cases: SPR
In general terms: SPR reads the build-up and loss of mass on a sensor chip optically.

For data set [1], the target named is T1, murine CCL17 (mCCL17, TARC) (Mus musculus, UniProt Q9WUZ6 24-93).
T1 sequence: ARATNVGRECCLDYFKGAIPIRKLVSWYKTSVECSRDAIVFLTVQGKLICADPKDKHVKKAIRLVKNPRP

Data set [2] deals with T1, murine CCL17 (mCCL17, TARC). The source holds these as a separate data set.
For data set [3], the target named is human CCL17 (hCCL17, TARC) (Homo sapiens, UniProt Q92583 24-94).
Sequence of human CCL17 (hCCL17, TARC) (Q92583 24-94): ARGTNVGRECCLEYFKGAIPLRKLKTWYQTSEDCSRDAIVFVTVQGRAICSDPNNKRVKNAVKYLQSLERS

B1: control aptamer (scrambled MF35.47) (structured_RNA)
RNA: GGGGGCGUGUAUGCCAGACCUGCCGAUGUCCUUAAGGUCGACGCUGU
modifications: 2'-fluoro pyrimidines
On to B1, for which, in data set [1], the binding result is “no binding”.

B2: MF35.47 (structured_RNA)
RNA: GGGAGGACGAUGCGGGAGCAGCAUUUGUGGUUUCCCGAUCGCUUCCC
modifications: 2'-fluoro pyrimidines
As usually defined, the Kd is the constant that tells how readily two partners part at equilibrium. A higher Kd goes with a looser complex. B2: binding in data set [2] was put at a Kd of 7.5 ± 1.5 nM. Also, the binding result in data set [3] is “no binding”.

B3: MF11.46 (structured_RNA)
RNA: GGGUCGUCGCGGGUUGGCUCGUAGAUCGGGCCGGUACAGACGACCC
modifications: 2'-fluoro pyrimidines
In data set [2], B3 showed an equilibrium dissociation constant (Kd) of 0.9 ± 0.1 nM. Moreover, the binding result in data set [3] is given as “no binding”.

For the origin of these results see PMC5763148.
